Source: patent US20140329787A1, “PHYTOPHTHORA PHOSPHOLIPASE C” (Deakin University, priority 2011, published 2014)
Entries after “also recorded” stand apart in the source; their conditions may differ.

B1: Alt-PLC2: Phytophthora sojae Alt-PLC with the additional 35aa fragment in the RAS-GEF domain, SEQ ID NO: 14 (protein, listed as Phytophthora sojae)
chain: MASGWRQKPRLDPWDPPSPPPLLEEAAPKPKPKTSRFSRRSTRAKSHARQQAQHVELEREKAFRLVRHGSDPLLNDAFYATQVQVGNFVKMGWLTKQGHMWKSWKTRFFVLFSDGTFAYYKNKGRKKIKGCMQLNDGVVSVQHVDIRLADKAYVFQIEKGFYKLLCYCCSQFEAELWVAALRSVRRVAPPCYEMDLTATEEKAGSNAVTRHLNKIFITDKQIAKRLAEFKANTHDHSYAAIHNFIVELDDAIIDRHHLEFYQDAEIELLPGNELVRLIRRHVEDRVFIPLYAEAYASLETDKVKTRRSNLEQHLKVLKQKTQADFGISKDLSVCNWKQAISVVNMLDCVSLPTHKFEVILSAGKAIMELIAQYNGELFEVSDEMLTAIFRYVVTMSSLSDLPTLRALLKYGYQHHPASQNKANVVTAFLNAIKWVECFEAGDESYQFDSLALAGSRVSVSISTNDVGIQFTTDGNGRGAIVYNIRKQSQAALSAAIVPGLSLIAINHEPVIGMPFDKIIQRVRTAALPKQLTFMTEFYYYQLLSLDSEMYQYLMCIAARRGDLDSAAWMRSSTIELNTLCSWEKSRGKQVFGFTPVSGKGSPLHAAVHNGQLSMVNYLISRGADVNLCNQKGRRPLHVVKQSIDMAMIIQSLIDAGADIDAMEKHGLTPLMFMCSRASLEGSATLLALGADVHCVAWTNGFSALEFAVKSEHTELVELCLSKGANPNAPTLDGNTSLHLAATQANTDIILRLLQGGANPNVQNRYGQTPAALLLASSPGGSSDVRILCLEILTCAGCRLDKRDLFGRQASHLASISRDSHVVDLLRKLGSLNREANGVEIDIFGCSSVDYSHRIEVDKSASYLGSQMPNSSWKMVDKDDHVSRSARPGSVDDLIRELVAGTEVDLVDVVSFVLFLDSFSSLNEVVDRLSAHVRNGVKSHGLIRLFIVVLLFRQSETKEADDLRDRFYSLISLNIDAKDKLEYFSLRGAGNYAVNYQAIPGMMSKVYGMESGFEPVSSGPFSAHLHRFVDAERWAEQCTLLTHAVFCKIPVRDFIPTGSKKKHSVEFTSIKRWFQHISAFVINAVLVQNTPEERAEVISFYLKVADYCISLHNHDTLASILYALQSTAVQRLRKTIDCLSLDAKKMMNEMQLLSDKGCREMNRLMRKTANPSMPYIGLYLQGFVGLNELPAFDKEGLVNANRLRRMGELAMEILHRQSVAYTLQHDEDVNKLLHVSLPYSSEESRYARSLELEPREADAIPLSDRGSYTLIDDDVDLENEVRESIGGDGTFGFRQWIRKQQVVHRNRSRSSVIALY
B2: t3: truncated Phytophthora sojae Alt-PLC1, SEQ ID NO: 19 (protein)
chain: YQFDSLALAGSRVSVSISTNDVGIQFTTDGNGRGAIVYNIRKQSQAALSAAIVPGLSLIAINHEPVIALEFAVKIDYSHRIEVDKSASYLGSQMPNSSWKMVDKDDHVSRSARPGSVDDLIRELVAGTEVDLVDVVSFVLFLDSFSSLNEVVDRLSAHVRNGVKSHGLIRLFIVVLLFRQSETKEADDLRDRFYSLISLNIDAKDKLVPLVEEYMSLYKEYFSLRGAGNYAVNYQAIPGMMSKVYGMESGFEPVSSGPFSAHLHRFVHPFIQRNHAATATVTMHHLLFTNPLTKAKGAIAANAFTHFVFQIHIIINQGIAATIAQRNRIRFTRFQFQATRITAFFAAIRQAHMQQFVHIFIMLQGIRHALTMQNFHRQFAHTTQTVRVHQAFFIKRRQFVQAHKALQIQANIRHARVRGFTHQTVHFTAAFIAQQLHFVHHFLCIQAQFQIKANHFRTFFRGVLHQHRVNHKRANMLKPTFNAGKFHAMLFLATGRNKITHRNFAKHRMGQQGALFRPTFRI
modifications: Derived from Phytophthora sojae
B3: t1: truncated Phytophthora sojae Alt-PLC1, SEQ ID NO: 17 (protein)
chain: YQFDSLALAGSRVSVSISTNDVGIQFTTDGNGRGAIVYNIRKQSQAALSAAIVPGLSLIAINHEPVIALEFAVKIDYSHRIEVDKSASYLGSQMPNSSWKMVDKDDHVSRSARPGSVDDLIRELVAGTEVDLVDVVSFVLFLDSFSSLNEVVDRLSAHVRNGVKSHGLIRLFIVVLLFRQSETKEADDLRDRFYSLISLNIDAKDKLVPLVEEYMSLYKEYFSLRGAGNYAVNYQAIPGMMSKVYGMESGFEPVSSGPFSAHLHRFV
modifications: Derived from Phytophthora sojae
B4: t2: truncated Phytophthora sojae Alt-PLC1, SEQ ID NO: 18 (protein)
chain: YQFDSLALAGSRVSVSISTNDVGIQFTTDGNGRGAIVYNIRKQSQAALSAAIVPGLSLIAINHEPVIALEFAVKIDYSHRIEVDKSASYLGSQMPNSSWKMVDKDDHVSRSARPGSVDDLIRELVAGTEVDLVDVVSFVLFLDSFSSLNEVVDRLSAHVRNGVKSHGLIRLFIVVLLFRQSETKEADDLRDRFYSLISLNIDAKDKLVPLVEEYMSLYKEYFSLRGAGNYAVNYQAIPGMMSKVYGMESGFEPVSSGPFSAHLHRFVHPFIQRNHAATATVTMHHLLFTNPLTKAKGAIAANAFTHFVFQIHIIINQGIAATIAQRNRIRFTRFQFQATRITAFFAAIRQAHMQQFVHIFIMLQGIRHALTMQNFHRQFAHTTQTVRVHQAFFIKRRQFVQAHKALQIQANIRHARVRGFTHQTVHFTAAFIAQQLHFVHHFLCIQAQFQ
modifications: Derived from Phytophthora sojae

Columns and labels:
[1] = Hydrolysis of PIPx, neutral-lipid TLC; assay type: biochemical; conditions: 0.2 mg/ml enzyme
Protocol: Lipid samples of 0.5 μl were applied to silica 60 TLC plates and allowed to dry prior to the addition of more sample. Neutral lipids were applied to 10×20 cm pre-absorption zone-bearing silica-60 plates (Sigma-Aldrich, USA) and resolved in a solvent mixture of hexane:diethyl ether:acetic acid (9:1:0.5). Phospholipids were resolved on 20×20 cm silica-60 plates (Merck, Australia), without a pre-absorption zone, in a solvent mixture of chloroform:methanol:acetic acid:water (90:40:12:2). Lipids were detected by spraying the dried TLC plates with a solution of 0.05% rhodamine B (Sigma) in methanol and destaining was performed by repeated spraying with 5 M KOH. Lipid spots were then visualised following UV excitation at 312 nm.
Alt-PLC and Alt-PLC2 were refolded into buffer A4 at a concentration of 0.2 mg/ml and a hydrolysis reaction was performed using PIPx (mixed phosphatidylinositols, Sigma) as the substrate. The reaction was performed as described previously and the resultant neutral lipids were extracted by diethyl ether phase extraction. The samples were analysed by neutral-lipid thin-layer chromatography, on silica 60 plates with a pre-absorption zone; the mobile phase employed was hexane: diethyl ether: acetic acid (9:1:0.5).

E. coli = assay: Growth curves of E. coli expressing Alt-PLC and truncations; assay type: cell-based; conditions: relative to E. coli not expressing Alt-PLC
Protocol: An analysis of function of the Alt-PLC truncations was performed using growth curves of Alt-PLC expressing E. coli cells (FIG. 28).
Therefore, growth curves of E. coli expressing Alt-PLC and the truncations allow determination of Alt-PLC function in vivo.

| Molecule | monoacylglycerol production / phospholipase C activity level in vitro [1] | growth of expressing E. coli (function in vivo) (E. coli) |
| --- | --- | --- |
| B1 | detection of monoacylglycerol production | same reduced growth rate shown by cells expressing Alt-PLC1 |
| B2 | – | reduced growth of E. coli; also recorded: significantly higher lethality |
| B3 | – | reduced growth of E. coli |
| B4 | – | reduced growth of E. coli |
